Test results: patent publication US20150351390A1, “COMPOSITIONS AND METHODS FOR AUXIN-ANALOG CONJUGATION” (PIONEER HI-BRED INTERNATIONAL, INC., priority 2012, published 2015)

B1: Sm85812: GH3 protein, Selmo1|85812 (protein, listed as Selaginella moellendorffii)
chain: MHSICLKSMEHATKNAAVIQRELLQQILEKNAGTEYLTRHGLDEESNLVDGFHKLPLVEYNDIEADIKRIADGDTGRILCSDPISQFFISSGTTTGRSKLIPVTKEANSRFFRPPLISPAWHRVFTINPDETYLAFWFASKQSLTKGGFKAETVTTSGLNSAHFKRAAASFVTPHKIFQSTSMYQCLYCHLLCGLLRREEVTVVISAFAFALTEAFRVLEQVWSELLEDIEAGSLSSRITDPILRLAMSGIAPPSPELAEQLRREFRSFSMDGIVQRLWPNAKSVVAVTTGAMAPYAPRLRALAGKTPLVCGNYFSSECLIGINLSPASSPATFTVNPEFAYFEFLSYHDGETKLNGLEEQRPVGLTEVTIGEKYEIVVTTRSGLYRYRLGDVVQVAGFFNSSPSLRFLFRRNVVMSVATDKTDEFELQAVVHKASLLLRSSSQLHDFAGYADFSSIPGHYAIFWELNHGGSMDPSTLQDCCELLDVSLNDPYLRGRSSGAIGPLKLCVVRGGSFRELFEQHVARGGSGSQYKSCRCVASKQAIDLLRRNTLQQALSSKFPNPWKLSIKSLELDQ
B2: Sm87623: GH3 protein, Selmo1|87623 (protein, listed as Selaginella moellendorffii)
chain: MDATAILSAIACDEQALGFMEHVTRHVSSVQDYVLQLLLEANAGTDYFQRHGLYGIPTKEEFRRLLPITTYSDMEADFQRLANGDESKTICAARVLEMLTSSGTSGGKQKLFPKSPSYDQEFVALNRVARAALNKKAPYASRGKSLQFFYVRKPGITSGGVTTTSGLSGYFTSPAFRQRKLDPESGYTSPDQVILCVDYQQASYCHLLCGLTQSQEVVSIGAPFASTLVRSLKALKDLWQELCVDIETGRVNDNIVSDLSVKHAVNALLKPDPKLAALVRRECSKSNWRGIVRRLWPRARIIQAIVTGSMQQYVPAIDFFSDGLPIASSIYAASECSTLGVNLSPVCSPYDVRYSPFPCFVYYEFLPVSSSSSSSPRRDDLVQLAEVELGREYELVITTRAGLYRYRVGDVLKVVGFKNSMPQFSFVGRAGVLLSVDTDKTDEVELHTAVTTAAAVMAKRNRGDVRLLDYTSRVNLSSQPGHYVVYWELSLDAAMESLEAELRECCSVMEESLSVVYRRNRREGSVGALEIKVVEPGTFDRIVDHVVFVGQGSIGQYKTPRCARDPAVLRILESSVVESSRAR
B3: AtGH3-11: GH3 protein, accession AAD23040 (protein, listed as Arabidopsis thaliana)
chain: MLEKVETFDMNRVIDEFDEMTRNAHQVQKQTLKEILLKNQSAIYLQNCGLNGNATDPEEAFKSMVPLVTDVELEPYIKRMVDGDTSPILTGHPVPAISLSSGTSQGRPKFIPFTDELMENTLQLFRTAFAFRNRDFPIDDNGKALQFIFSSKQYISTGGVPVGTATTNVYRNPNFKAGMKSITSPSCSPDEVIFSPDVHQALYCHLLSGILFRDQVQYVFAVFAHGLVHAFRTFEQVWEEIVTDIKDGVLSNRITVPSVRTAMSKLLTPNPELAETIRTKCMSLSNWYGLIPALFPNAKYVYGIMTGSMEPYVPKLRHYAGDLPLVSHDYGSSEGWIAANVTPRLSPEEATFAVIPNLGYFEFLPVSETGEGEEKPVGLTQVKIGEEYEVVITNYAGLYRYRLGDVVKVIGFYNNTPQLKFICRRNLILSINIDKNTERDLQLSVESAAKRLSEEKIEVIDFSSYIDVSTDPGHYAIFWEISGETNEDVLQDCCNCLDRAFIDAGYVSSRKCKTIGALELRVVAKGTFRKIQEHFLGLGSSAGQFKMPRCVKPSNAKVLQILCENVVSSYFSTAF
B4: OsGH3-3: GH3 protein, accession EEE54131 (protein, listed as Oryza sativa)
chain: MLEKKATRSTRVDGVSGEAVIEEFERVTRDAANVQRETLRRILAENGGVEYLRGLGLAGATDPATFRARVPLATHADLEPYIDRIADGDASPVLTAKPATSISLSSGTTQGKRKYLLFNEELVKSTMQIYRISYAFRNREFPVENGKALQFIYSSRETRTKGGLTATTATTNVYRSEEFKATMRDIQSQCCSPDEVIFGPDFAQSLYCHLLAGLLAAGDVQIVSATFAHSVVLAFQTFERAWEDLCADIRRGEVSPSRVTSPAVRRAMAALLAAPNPGLADEVARKCAALSNWYGVIPALWPNARYVYGIMTGSMEHYVKKLRHYAGGLPLVAAEYGASEGWVGANVEPGTPPERATFTVLPDIAYFEFIPLKPVAGDGGYAEAEPVGLTEVAAGELYEVVMTTFAGLYRYRLGDVVKVAGFYNATPKLKFVCRRNLMLSINIDKNSEQDLQLAVDAAARAVLAGEKLEVVDYTSHADVSSDPGHYVVFLELNAADPAAVDGDVMQACCDELDRAFADAGYVGSRKSGAIAPLELRVLQRGTFQKVLRHYLSLGAPVSQFKSPRCVSRSNSGVLQILAGCTVNVFFSSAYD
B5: Sm93250: GH3 protein, Selmo1|93250 (protein, listed as Selaginella moellendorffii)
chain: MDPALFRDDIESKTKDAAAVQANLLSQMMELNGETEYLRRYGGRFDSLPIIEYHDVADEVQRIANGDTSPILTAEPVVRFFKSSGTVTGEPKLIPATSKSLELLFRRPVYMMESDVCLGFLFAKPENKSPGGLPVSTTSSMFFKVQGENLEKMFTSPMKLLLAPDINQSLYCQLLCGLIRSEDVTQVFAALAITLVEALRLLEEAWSELADDVQTGTLNSKITDPTLRSSLSLCLRPNLKLAQSIRKECTADNAWCGIVERLWPKTKVIVTITTGGMAPYAPAVRKYGGSVPIVSGDYVCTECVLGFNLDPFCPPESVSFTIHPEYAYYEFLHYPQKLTDGSTVKLVDVKVGEEYELVVSTWSGLYRYKVGDIVRVTGFHNFSPNISFVHRLNAELDIAGERSTEAELQVAVQKSQHCLPASQELVDFTCHQDGQRYLIFWEIKNGDSLNPMILETCCCVLDTSLTERYKQRRENGLIGPLRLCIVRGKTFKALQQYSLEKGINPTQYKTPRCITSPEMIAILQAGITQDCQTPA

Test: LC-MS assay of GH3 conjugation of IAA with Asp or Glu
Assay type: biochemical
Conditions: LC-MS; IAA with Asp
Summary of the method: (§1)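 N-His-tagged GH3 homologs expressed in E. coli C41(DE3) and Ni-NTA purified (44 to 164 μg/mL) were incubated 3 hours at 30° C. in 20 mM Tris-HCl pH 8.0, 5 mM MgCl2, 1 mM DTT with 5 mM each of auxin, ATP and Asp or Glu. Conjugates were quantified by LC-MS against standards.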
In the case of B1, the “Detected auxin conjugates: IAA-Asp” value is reported as “Yes”.
For B2, the “Detected auxin conjugates: IAA-Asp” value was “Yes”.
With B3 the “Detected auxin conjugates: IAA-Asp” value was “No”.
For B4, the “Detected auxin conjugates: IAA-Asp” value was “Yes”.
In the case of B5, the “Detected auxin conjugates: IAA-Asp” value is reported as “Yes”.

Same assay, conditions: LC-MS; IAA with Glu
For B1, the “Detected auxin conjugates: IAA-Glu” value was “No”.
In the case of B2, the “Detected auxin conjugates: IAA-Glu” value is reported as “No”.
With B3 the “Detected auxin conjugates: IAA-Glu” value was “No”.
With B4 the “Detected auxin conjugates: IAA-Glu” value was “No”.
For B5, the “Detected auxin conjugates: IAA-Glu” value was “No”.

Test: LC-MS assay of GH3 conjugation of 2,4-D with Asp or Glu
Assay type: biochemical
Conditions: LC-MS; 2,4-D with Asp
Summary of the method: as §1
For B1, the “Detected auxin conjugates: 2,4-D-Asp” value was “No”.
For B2, the “Detected auxin conjugates: 2,4-D-Asp” value was “Yes”.
With B3 the “Detected auxin conjugates: 2,4-D-Asp” value was “No”.
For B4, the “Detected auxin conjugates: 2,4-D-Asp” value was “No”.
For B5, the “Detected auxin conjugates: 2,4-D-Asp” value was “No”.

Same assay, conditions: LC-MS; 2,4-D with Glu
With B1 the “Detected auxin conjugates: 2,4-D-Glu” value was “No”.
For B2, the “Detected auxin conjugates: 2,4-D-Glu” value was “No”.
For B3, the “Detected auxin conjugates: 2,4-D-Glu” value was “No”.
With B4 the “Detected auxin conjugates: 2,4-D-Glu” value was “No”.
With B5 the “Detected auxin conjugates: 2,4-D-Glu” value was “No”.

Test: LC-MS assay of GH3 conjugation of dicamba with Asp or Glu
Assay type: biochemical
Conditions: LC-MS; dicamba with Asp
Summary of the method: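 Dicamba–amino acid (Asp or Glu) conjugates formed by purified his-tagged GH3 enzymes were detected by LC-MS on an AB Sciex 4000 QTrap with Shimadzu Nexera UHPLC and a Phenomenex Luna 3 μm Phenyl-Hexyl column, after 20× dilution of the supernatant in water. Standards were used to quantify conjugates. Protein concentration was determined by Bradford assay.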
With B1 the “Detected auxin conjugates: Dicamba-Asp” value was “No”.
With B2 the “Detected auxin conjugates: Dicamba-Asp” value was “No”.
With B3 the “Detected auxin conjugates: Dicamba-Asp” value was “No”.
In the case of B4, the “Detected auxin conjugates: Dicamba-Asp” value is reported as “No”.
For B5, the “Detected auxin conjugates: Dicamba-Asp” value was “No”.

Same assay, conditions: LC-MS; dicamba with Glu
In the case of B1, the “Detected auxin conjugates: Dicamba-Glu” value is reported as “No”.
With B2 the “Detected auxin conjugates: Dicamba-Glu” value was “No”.
For B3, the “Detected auxin conjugates: Dicamba-Glu” value was “No”.
In the case of B4, the “Detected auxin conjugates: Dicamba-Glu” value is reported as “No”.
For B5, the “Detected auxin conjugates: Dicamba-Glu” value was “No”.
